Measurements published in PMC9482650, “Quantitative fragmentomics allow affinity mapping of interactomes” (Nature Communications, 2022).

Experiments:
Experiment in all cases: holdup assay
Design in all cases: key: below the threshold = too weak to quantify, mostly under pKd 3.1 to 4
[1] = biological target: Inadl_9, Q8NI35
[2] = biological target: T1, ARHGAP21, Q5T5U3
T1 sequence (Q5T5U3 45-169, limits assumed, looked up): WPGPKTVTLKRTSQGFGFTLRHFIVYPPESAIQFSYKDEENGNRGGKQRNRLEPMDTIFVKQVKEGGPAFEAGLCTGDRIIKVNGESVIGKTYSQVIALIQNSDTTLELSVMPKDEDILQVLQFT

[3] = biological target: PDZRN4_1, Q6ZMN7
[4] = biological target: PICK1, Q9NRD5
[5] = biological target: T2, HTRA3, P83110
T2 sequence (P83110 354-453, limits assumed, looked up): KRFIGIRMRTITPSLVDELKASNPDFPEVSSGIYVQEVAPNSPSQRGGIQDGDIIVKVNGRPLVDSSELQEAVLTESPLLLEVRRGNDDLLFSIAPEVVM

[6] = biological target: T3, SNTG1, Q9NSN8
T3 sequence (Q9NSN8 52-150, limits assumed, looked up): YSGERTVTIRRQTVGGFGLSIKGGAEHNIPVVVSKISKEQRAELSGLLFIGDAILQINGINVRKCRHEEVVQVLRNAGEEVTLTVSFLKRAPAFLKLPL

[7] = biological target: T4, LRRC7, Q96NW7
T4 sequence (Q96NW7 1440-1537, limits assumed, looked up): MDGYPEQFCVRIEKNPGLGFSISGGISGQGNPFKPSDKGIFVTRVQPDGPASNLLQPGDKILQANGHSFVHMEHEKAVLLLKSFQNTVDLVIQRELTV

[8] = biological target: T5, LNX2_3, Q8N448
T5 sequence (Q8N448 463-564, limits assumed, looked up): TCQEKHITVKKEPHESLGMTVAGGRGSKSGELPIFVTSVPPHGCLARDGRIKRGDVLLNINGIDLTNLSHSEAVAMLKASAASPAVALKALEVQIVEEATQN

[9] = biological target: TJP2_1, Q9UDY2
[10] = biological target: MAGI1_1, Q96QZ7
[11] = biological target: Inadl_1, Q8NI35
[12] = biological target: T6, SNTB1, Q13884
T6 sequence (Q13884 107-205, limits assumed, looked up): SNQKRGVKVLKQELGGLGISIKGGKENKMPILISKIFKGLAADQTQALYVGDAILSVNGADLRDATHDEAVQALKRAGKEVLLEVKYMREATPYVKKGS

[13] = biological target: T7, TIAM2, Q8IVF5
T7 sequence (Q8IVF5 885-986, limits assumed, looked up): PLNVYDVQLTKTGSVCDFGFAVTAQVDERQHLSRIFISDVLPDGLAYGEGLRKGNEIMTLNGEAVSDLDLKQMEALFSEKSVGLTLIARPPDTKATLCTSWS

[14] = biological target: MAGI2_6, Q86UL8
[15] = biological target: T8, CARD11, Q9BXL7
T8 sequence (Q9BXL7 662-765, limits assumed, looked up): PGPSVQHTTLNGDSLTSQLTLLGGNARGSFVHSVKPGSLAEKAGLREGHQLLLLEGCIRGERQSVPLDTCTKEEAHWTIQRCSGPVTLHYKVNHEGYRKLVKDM

[16] = biological target: T9, LIN7A, O14910
T9 sequence (O14910 103-200, limits assumed, looked up): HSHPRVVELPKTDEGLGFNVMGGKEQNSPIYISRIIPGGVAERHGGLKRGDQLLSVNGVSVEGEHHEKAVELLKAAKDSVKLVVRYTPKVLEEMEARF

[17] = biological target: T10, NHERF3_4, Q5T2W1
T10 sequence (Q5T2W1 373-468, limits assumed, looked up): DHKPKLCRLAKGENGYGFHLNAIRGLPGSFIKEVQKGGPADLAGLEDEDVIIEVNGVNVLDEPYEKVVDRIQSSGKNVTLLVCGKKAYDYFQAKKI

[18] = biological target: T11, GRIP1_5, Q9Y3R0
T11 sequence (Q9Y3R0 568-668, limits assumed, looked up): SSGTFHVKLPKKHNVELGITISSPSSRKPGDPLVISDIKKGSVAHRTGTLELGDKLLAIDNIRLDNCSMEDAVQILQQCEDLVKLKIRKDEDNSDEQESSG

[19] = biological target: T12, MPDZ_5, O75970
T12 sequence (O75970 695-796, limits assumed, looked up): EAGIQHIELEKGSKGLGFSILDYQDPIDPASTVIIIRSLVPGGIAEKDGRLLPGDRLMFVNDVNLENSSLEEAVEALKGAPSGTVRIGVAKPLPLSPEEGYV

[20] = biological target: GRID2IP_1, A4D2P6
[21] = biological target: GRASP, Q7Z6J2
[22] = biological target: AHNAK1, Q09666
[23] = biological target: T13, LIN7B, Q9HAP6
T13 sequence (Q9HAP6 88-185, limits assumed, looked up): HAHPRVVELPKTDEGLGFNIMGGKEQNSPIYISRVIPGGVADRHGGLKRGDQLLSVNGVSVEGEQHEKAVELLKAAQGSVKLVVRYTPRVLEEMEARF

[24] = biological target: IL16_4, Q14005
[25] = plain residues with an end cap or a label only (N-terminal biotin on a linker: ahx)
[26] = plain residues with an end cap or a label only (N-terminal biotin on a linker: ttds)

Chain of MAGI2_6, Q86UL8 (Q86UL8 1141-1229): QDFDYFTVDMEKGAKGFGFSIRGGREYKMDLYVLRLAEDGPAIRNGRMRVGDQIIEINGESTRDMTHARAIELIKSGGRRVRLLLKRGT
Chain of PICK1, Q9NRD5 (Q9NRD5 17-115): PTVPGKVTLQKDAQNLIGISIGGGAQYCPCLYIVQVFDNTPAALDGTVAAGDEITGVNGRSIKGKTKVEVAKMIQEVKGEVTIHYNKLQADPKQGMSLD
Chain of TJP2_1, Q9UDY2 (Q9UDY2 24-128): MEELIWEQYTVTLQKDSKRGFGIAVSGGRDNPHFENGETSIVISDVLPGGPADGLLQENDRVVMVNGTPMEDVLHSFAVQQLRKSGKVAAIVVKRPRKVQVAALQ
Chain of AHNAK1, Q09666 (Q09666 4-100): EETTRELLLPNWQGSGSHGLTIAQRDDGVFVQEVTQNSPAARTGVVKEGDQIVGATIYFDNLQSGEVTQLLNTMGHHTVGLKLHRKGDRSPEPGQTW
Chain of PDZRN4_1, Q6ZMN7 (Q6ZMN7 213-318): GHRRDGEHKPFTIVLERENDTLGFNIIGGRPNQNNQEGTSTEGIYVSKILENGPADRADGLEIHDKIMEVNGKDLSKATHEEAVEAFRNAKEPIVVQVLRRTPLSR
Chain of MAGI1_1, Q96QZ7 (Q96QZ7 1-106): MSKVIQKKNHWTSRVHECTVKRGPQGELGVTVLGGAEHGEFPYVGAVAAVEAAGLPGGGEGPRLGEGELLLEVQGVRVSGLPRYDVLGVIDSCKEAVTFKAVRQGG
Chain of GRID2IP_1, A4D2P6 (A4D2P6 1-87): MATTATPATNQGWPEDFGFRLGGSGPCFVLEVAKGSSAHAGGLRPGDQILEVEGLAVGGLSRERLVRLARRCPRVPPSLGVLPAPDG
Chain of Inadl_9, Q8NI35 (Q8NI35 1530-1615): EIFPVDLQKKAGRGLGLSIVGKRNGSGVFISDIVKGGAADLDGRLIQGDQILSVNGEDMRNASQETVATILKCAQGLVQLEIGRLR
Chain of GRASP, Q7Z6J2 (Q7Z6J2 96-193): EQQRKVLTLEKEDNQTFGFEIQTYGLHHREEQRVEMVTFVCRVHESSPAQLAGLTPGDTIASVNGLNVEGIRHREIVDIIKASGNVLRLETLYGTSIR
Chain of Inadl_1, Q8NI35 (Q8NI35 113-229): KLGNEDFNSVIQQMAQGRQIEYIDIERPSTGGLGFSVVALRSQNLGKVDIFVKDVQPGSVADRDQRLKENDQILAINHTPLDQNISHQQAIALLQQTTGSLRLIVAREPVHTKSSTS
Chain of IL16_4, Q14005 (Q14005 1229-1329): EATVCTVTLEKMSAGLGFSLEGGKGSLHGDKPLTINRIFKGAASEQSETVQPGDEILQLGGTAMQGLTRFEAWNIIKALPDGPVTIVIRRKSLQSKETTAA

HNAFLSVTTV [PDZRN4, Q6ZMN7]
pKd [1, 25]: below the threshold
pKd [2, 25]: 3.5
pKd [3, 25]: 3.5
pKd [4, 25]: below the threshold
pKd [5, 25]: below the threshold
pKd [6, 25]: below the threshold
pKd [7, 25]: 3.5
pKd [8, 25]: below the threshold
pKd [9, 25]: below the threshold
pKd [10, 25]: below the threshold
pKd [11, 25]: below the threshold
pKd [12, 25]: 3.54
pKd [13, 25]: below the threshold
pKd [14, 25]: below the threshold
pKd [15, 25]: below the threshold
pKd [16, 25]: 3.52
pKd [17, 25]: 3.61
pKd [18, 25]: 3.55
pKd [19, 25]: 3.49
pKd [20, 25]: below the threshold
pKd [21, 25]: 3.57
pKd [22, 25]: 3.7
pKd [23, 25]: below the threshold
pKd [24, 25]: 3.58

RLQRRRETQV [HPV18-E6, P06463]
pKd [1, 26]: below the threshold
pKd [2, 26]: below the threshold
pKd [3, 26]: 4.48
pKd [4, 26]: below the threshold
pKd [5, 26]: below the threshold
pKd [6, 26]: 3.93
pKd [7, 26]: 3.14
pKd [8, 26]: below the threshold
pKd [9, 26]: 3.89
pKd [10, 26]: below the threshold
pKd [11, 26]: below the threshold
pKd [12, 26]: 5.23
pKd [13, 26]: below the threshold
pKd [14, 26]: below the threshold
pKd [15, 26]: below the threshold
pKd [16, 26]: 3.4
pKd [17, 26]: below the threshold
pKd [18, 26]: below the threshold
pKd [19, 26]: below the threshold
pKd [20, 26]: below the threshold
pKd [21, 26]: below the threshold
pKd [22, 26]: below the threshold
pKd [23, 26]: 3.58
pKd [24, 26]: below the threshold

RLPKIKETTV [FRMPD4, Q14CM0]
pKd [1, 26]: 3.48
pKd [2, 26]: below the threshold
pKd [3, 26]: 4.67
pKd [4, 26]: below the threshold
pKd [5, 26]: below the threshold
pKd [6, 26]: 5.02
pKd [7, 26]: 3.58
pKd [8, 26]: below the threshold
pKd [9, 26]: below the threshold
pKd [10, 26]: below the threshold
pKd [11, 26]: below the threshold
pKd [12, 26]: 5.17
pKd [13, 26]: below the threshold
pKd [14, 26]: 3.98
pKd [15, 26]: below the threshold
pKd [16, 26]: 4.38
pKd [17, 26]: below the threshold
pKd [18, 26]: below the threshold
pKd [19, 26]: below the threshold
pKd [20, 26]: below the threshold
pKd [21, 26]: 3.47
pKd [22, 26]: below the threshold
pKd [23, 26]: 4.52
pKd [24, 26]: below the threshold
